Article PMC2365708, “Binding of MutS protein to oligonucleotides containing a methylated or an ethylated guanine residue, and correlation with mutation frequency”

Molecular target: T1, MutS (Escherichia coli, UniProt P23909 1-853)
T1 sequence: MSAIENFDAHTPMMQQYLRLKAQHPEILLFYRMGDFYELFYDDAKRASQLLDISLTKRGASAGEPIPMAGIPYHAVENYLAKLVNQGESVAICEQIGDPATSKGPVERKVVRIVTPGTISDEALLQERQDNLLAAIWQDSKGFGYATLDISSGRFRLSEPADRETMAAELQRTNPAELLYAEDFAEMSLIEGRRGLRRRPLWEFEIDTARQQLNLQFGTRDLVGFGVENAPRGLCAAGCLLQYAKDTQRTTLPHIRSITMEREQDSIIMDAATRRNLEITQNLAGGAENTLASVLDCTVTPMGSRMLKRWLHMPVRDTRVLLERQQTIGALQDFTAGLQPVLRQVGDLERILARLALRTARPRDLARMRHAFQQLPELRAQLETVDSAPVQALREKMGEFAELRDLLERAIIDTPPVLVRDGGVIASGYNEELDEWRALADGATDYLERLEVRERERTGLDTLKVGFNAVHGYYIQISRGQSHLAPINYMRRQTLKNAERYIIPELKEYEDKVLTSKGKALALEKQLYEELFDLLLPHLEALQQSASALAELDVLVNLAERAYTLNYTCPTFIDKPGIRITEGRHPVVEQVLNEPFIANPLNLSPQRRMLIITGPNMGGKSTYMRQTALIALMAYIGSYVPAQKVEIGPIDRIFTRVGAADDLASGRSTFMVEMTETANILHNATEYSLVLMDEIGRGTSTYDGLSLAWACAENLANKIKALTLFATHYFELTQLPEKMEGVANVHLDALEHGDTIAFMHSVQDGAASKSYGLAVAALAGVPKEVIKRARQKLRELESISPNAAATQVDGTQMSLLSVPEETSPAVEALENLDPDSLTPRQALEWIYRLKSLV
Test: EMSA; 5 mM Mg2+; 20 pmol unlabeled GC duplex; 20 mM Tris-HCl pH 7.6, 50 mM KCl, 5 mM MgCl2, 1 mM DTT, 0.05 mg/ml BSA, 37 °C 15 min, 20 μl, 2 pmol labeled duplex, 20 pmol unlabeled GC duplex, 5% native PAGE
Details: protein: recombinant, tags: His6, chain copies: 2, label: 5'-32P (KN-2 or KN-3 strand)

B1: G:T duplex (dsDNA)
DNA 1: GGTCGCTGGGGAATGGGAGTGGCCACGGCG
DNA 2: CGCCGTGGCCACTCTCATTCCCCAGCGACC
- Kd (G:T mismatch): 75 nM

B2: O6-MeG:T duplex (dsDNA)
DNA 1: GGTCGCTGGGGAATGGGAGTGGCCACGGCG
DNA 2: CGCCGTGGCCACTCTCATTCCCCAGCGACC
modifications: O6-methylguanine opposite T
- Kd (O6-MeG:T pair): 120 nM

B3: O6-EtG:T duplex (dsDNA)
DNA 1: GGTCGCTGGGGAATGGGAGTGGCCACGGCG
DNA 2: CGCCGTGGCCACTCTCATTCCCCAGCGACC
modifications: O6-ethylguanine opposite T
- Kd (O6-EtG:T pair): 210 nM

B4: O6-EtG:C duplex (dsDNA)
DNA 1: GGTCGCTGGGGAATGGGAGTGGCCACGGCG
DNA 2: CGCCGTGGCCACTCCCATTCCCCAGCGACC
modifications: O6-ethylguanine opposite C
- Kd (O6-EtG:C pair): 220 nM

B5: O6-MeG:C duplex (dsDNA)
DNA 1: GGTCGCTGGGGAATGGGAGTGGCCACGGCG
DNA 2: CGCCGTGGCCACTCCCATTCCCCAGCGACC
modifications: O6-methylguanine opposite C
- Kd (O6-MeG:C pair): 220 nM
